According to the Human Domainome abundance scans (Beltran et al. 2025):
± gives the uncertainty stated by the source.

B1: Serine/threonine-protein kinase A-Raf, residues 21 to 89; numbered along this chain, P10398 (parent)
chain: VKVYLPNKQRTVVTVRDGMSVYDSLDKALKVRGLNQDCCVVYRLIKGRKTVTAWDTAIAPLDGEELIVE

Variants of: B1
Test: abundance fitness (aPCA) (normalised: wild type 0, dead -1); higher = more abundant; growth selection in yeast, the domain comes from the species named
Settings: Homo sapiens

| Variant | abundance fitness |
| --- | --- |
| VKVYLPNKQRTVVTVRDGMSVYDSLDKALKVRGLNQDCCVVYRLIKGRKAVTAWDTAIAPLDGEELIVE | -0.227 ± 0.31 |
| VKVYLPNKQRTVVTVRDGMSVYDSLDKALKVRGLNQDCCVVYRLIKGRKPVTAWDTAIAPLDGEELIVE | -0.715 ± 0.21 |
| VKVYLPNKQRTVVTVRDGMSVYDSLDKALKVRGLNQDCCVVYRLIKGRKRVTAWDTAIAPLDGEELIVE | -0.173 ± 0.35 |
| VKVYLPNKQRTVVTVRDGMSVYDSLDKALKVRGLNQDCCVVYRLIKGRKSVTAWDTAIAPLDGEELIVE | -0.402 ± 0.18 |
| VKVYLPNKQRTVVTVRDGMSVYDSLDKALKVRGLNQDCCVVYRLIKGRKVVTAWDTAIAPLDGEELIVE | 0.362 ± 0.18 |
| VKVYLPNKQRTVVTVRDGMSVYDSLDKALKVRGLNQDCCVVYRLIKGRKEVTAWDTAIAPLDGEELIVE | -0.515 ± 0.38 |
| VKVYLPNKQRTVVTVRDGMSVYDSLDKALKVRGLNQDCCVVYRLIKGRKTVTLWDTAIAPLDGEELIVE | -0.455 ± 0.075 |
| VKVYLPNKQRTVVTVRDGMSVYDSLDKALKVRGLNQDCCVVYRLIKGRKTVTGWDTAIAPLDGEELIVE | -0.033 ± 0.057 |
| VKVYLPNKQRTVVTVRDGMSVYDSLDKALKVRGLNQDCCVVYRLIKGRKTVTYWDTAIAPLDGEELIVE | -0.377 ± 0.15 |
| VKVYLPNKQRTVVTVRDGMSVYDSLDKALKVRGLNQDCCVVYRLIKGRKTVTRWDTAIAPLDGEELIVE | -0.149 ± 0.056 |
| VKVYLPNKQRTVVTVRDGMSVYDSLDKALKVRGLNQDCCVVYRLIKGRKTVTCWDTAIAPLDGEELIVE | -0.166 ± 0.11 |
| VKVYLPNKQRTVVTVRDGMSVYDSLDKALKVRGLNQDCCVVYRLIKGRKTVTDWDTAIAPLDGEELIVE | -0.03 ± 0.14 |
| VKVYLPNKQRTVVTVRDGMSVYDSLDKALKVRGLNQDCCVVYRLIKGRKTVTQWDTAIAPLDGEELIVE | -0.078 ± 0.064 |
| VKVYLPNKQRTVVTVRDGMSVYDSLDKALKVRGLNQDCCVVYRLIKGRKTVTHWDTAIAPLDGEELIVE | -0.098 ± 0.07 |
| VKVYLPNKQRTVVTVRDGMSVYDSLDKALKVRGLNQDCCVVYRLIKGRKTVTPWDTAIAPLDGEELIVE | 0.032 ± 0.075 |
| VKVYLPNKQRTVVTVRDGMSVYDSLDKALKVRGLNQDCCVVYRLIKGRKTVTEWDTAIAPLDGEELIVE | 0.08 ± 0.072 |
| VKVYLPNKQRTVVTVRDGMSVYDSLDKALKVRGLNQDCCVVYRLIKGRKTVTWWDTAIAPLDGEELIVE | -0.728 ± 0.084 |
| VKVYLPNKQRTVVTVRDGMSVYDSLDKALKVRGLNQDCCVVYRLIKGRKTVTNWDTAIAPLDGEELIVE | -0.257 ± 0.13 |
| VKVYLPNKQRTVVTVRDGMSVYDSLDKALKVRGLNQDCCVVYRLIKGRKTVTKWDTAIAPLDGEELIVE | -0.079 ± 0.06 |
| VKVYLPNKQRTVVTVRDGMSVYDSLDKALKVRGLNQDCCVVYRLIKGRKTVTSWDTAIAPLDGEELIVE | -0.058 ± 0.056 |
| VKVYLPNKQRTVVTVRDGMSVYDSLDKALKVRGLNQDCCVVYRLIKGRKTVTTWDTAIAPLDGEELIVE | -0.127 ± 0.085 |
| VKVYLPNKQRTVVTVRDGMSVYDSLDKALKVRGLNQDCCVVYRLIKGRKTVTMWDTAIAPLDGEELIVE | -0.549 ± 0.14 |
| VKVYLPNKQRTVVTVRDGMSVYDSLDKALKVRGLNQDCCVVYRLIKGRKTHTAWDTAIAPLDGEELIVE | -0.156 ± 0.22 |
| VKVYLPNKQRTVVTVRDGMSVYDSLDKALKVRGLNQDCCVVYRLIKGRKTYTAWDTAIAPLDGEELIVE | -0.255 ± 0.2 |
| VKVYLPNKQRTVVTVRDGMSVYDSLDKALKVRGLNQDCCVVYRLIKGRKTETAWDTAIAPLDGEELIVE | -0.128 ± 0.064 |
| VKVYLPNKQRTVVTVRDGMSVYDSLDKALKVRGLNQDCCVVYRLIKGRKTMTAWDTAIAPLDGEELIVE | 0.093 ± 0.07 |

| Variant | abundance fitness |
| --- | --- |
| VKVYLPNKQRTVVTVRDGMSVYDSLDKALKVRGLNQDCCVVYRLIKGRKTATAWDTAIAPLDGEELIVE | -0.102 ± 0.068 |
| VKVYLPNKQRTVVTVRDGMSVYDSLDKALKVRGLNQDCCVVYRLIKGRKTQTAWDTAIAPLDGEELIVE | -0.032 ± 0.064 |
| VKVYLPNKQRTVVTVRDGMSVYDSLDKALKVRGLNQDCCVVYRLIKGRKTGTAWDTAIAPLDGEELIVE | -0.662 ± 0.11 |
| VKVYLPNKQRTVVTVRDGMSVYDSLDKALKVRGLNQDCCVVYRLIKGRKTITAWDTAIAPLDGEELIVE | 0.102 ± 0.13 |
| VKVYLPNKQRTVVTVRDGMSVYDSLDKALKVRGLNQDCCVVYRLIKGRKTKTAWDTAIAPLDGEELIVE | -0.001 ± 0.076 |
| VKVYLPNKQRTVVTVRDGMSVYDSLDKALKVRGLNQDCCVVYRLIKGRKTRTAWDTAIAPLDGEELIVE | -0.002 ± 0.042 |
| VKVYLPNKQRTVVTVRDGMSVYDSLDKALKVRGLNQDCCVVYRLIKGRKTLTAWDTAIAPLDGEELIVE | 0.026 ± 0.046 |
| VKVYLPNKQRTVVTVRDGMSVYDSLDKALKVRGLNQDCCVVYRLIKGRKTTTAWDTAIAPLDGEELIVE | -0.324 ± 0.15 |
| VKVYLPNKQRTVVTVRDGMSVYDSLDKALKVRGLNQDCCVVYRLIKGRKTPTAWDTAIAPLDGEELIVE | 0.031 ± 0.077 |
| VKVYLPNKQRTVVTVRDGMSVYDSLDKALKVRGLNQDCCVVYRLIKGRKTVTATDTAIAPLDGEELIVE | -0.797 ± 0.14 |
| VKVYLPNKQRTVVTVRDGMSVYDSLDKALKVRGLNQDCCVVYRLIKGRKTVTAPDTAIAPLDGEELIVE | -0.924 ± 0.14 |
| VKVYLPNKQRTVVTVRDGMSVYDSLDKALKVRGLNQDCCVVYRLIKGRKTVTAYDTAIAPLDGEELIVE | -0.756 ± 0.2 |
| VKVYLPNKQRTVVTVRDGMSVYDSLDKALKVRGLNQDCCVVYRLIKGRKTVTAEDTAIAPLDGEELIVE | -0.96 ± 0.13 |
| VKVYLPNKQRTVVTVRDGMSVYDSLDKALKVRGLNQDCCVVYRLIKGRKTVTAMDTAIAPLDGEELIVE | -0.499 ± 0.1 |
| VKVYLPNKQRTVVTVRDGMSVYDSLDKALKVRGLNQDCCVVYRLIKGRKTVTADDTAIAPLDGEELIVE | -0.743 ± 0.33 |
| VKVYLPNKQRTVVTVRDGMSVYDSLDKALKVRGLNQDCCVVYRLIKGRKTVTARDTAIAPLDGEELIVE | -0.879 ± 0.1 |
| VKVYLPNKQRTVVTVRDGMSVYDSLDKALKVRGLNQDCCVVYRLIKGRKTVTANDTAIAPLDGEELIVE | -0.917 ± 0.24 |
| VKVYLPNKQRTVVTVRDGMSVYDSLDKALKVRGLNQDCCVVYRLIKGRKTVTAKDTAIAPLDGEELIVE | -0.843 ± 0.13 |
| VKVYLPNKQRTVVTVRDGMSVYDSLDKALKVRGLNQDCCVVYRLIKGRKTVTAQDTAIAPLDGEELIVE | -0.916 ± 0.16 |
| VKVYLPNKQRTVVTVRDGMSVYDSLDKALKVRGLNQDCCVVYRLIKGRKTVTASDTAIAPLDGEELIVE | -0.808 ± 0.14 |
| VKVYLPNKQRTVVTVRDGMSVYDSLDKALKVRGLNQDCCVVYRLIKGRKTVTAFDTAIAPLDGEELIVE | -0.89 ± 0.29 |
| VKVYLPNKQRTVVTVRDGMSVYDSLDKALKVRGLNQDCCVVYRLIKGRKTVTAGDTAIAPLDGEELIVE | -1.03 ± 0.14 |
| VKVYLPNKQRTVVTVRDGMSVYDSLDKALKVRGLNQDCCVVYRLIKGRKTVTAVDTAIAPLDGEELIVE | -0.913 ± 0.14 |
| VKVYLPNKQRTVVTVRDGMSVYDSLDKALKVRGLNQDCCVVYRLIKGRKTVMAWDTAIAPLDGEELIVE | 0.118 ± 0.05 |
| VKVYLPNKQRTVVTVRDGMSVYDSLDKALKVRGLNQDCCVVYRLIKGRKTVRAWDTAIAPLDGEELIVE | -0.529 ± 0.063 |
| VKVYLPNKQRTVVTVRDGMSVYDSLDKALKVRGLNQDCCVVYRLIKGRKTVCAWDTAIAPLDGEELIVE | -0.161 ± 0.11 |

| Variant | abundance fitness |
| --- | --- |
| VKVYLPNKQRTVVTVRDGMSVYDSLDKALKVRGLNQDCCVVYRLIKGRKTVAAWDTAIAPLDGEELIVE | -0.174 ± 0.062 |
| VKVYLPNKQRTVVTVRDGMSVYDSLDKALKVRGLNQDCCVVYRLIKGRKTVKAWDTAIAPLDGEELIVE | -0.356 ± 0.072 |
| VKVYLPNKQRTVVTVRDGMSVYDSLDKALKVRGLNQDCCVVYRLIKGRKTVSAWDTAIAPLDGEELIVE | -0.567 ± 0.071 |
| VKVYLPNKQRTVVTVRDGMSVYDSLDKALKVRGLNQDCCVVYRLIKGRKTVLAWDTAIAPLDGEELIVE | 0.052 ± 0.047 |
| VKVYLPNKQRTVVTVRDGMSVYDSLDKALKVRGLNQDCCVVYRLIKGRKTVGAWDTAIAPLDGEELIVE | -0.956 ± 0.11 |
| VKVYLPNKQRTVVTVRDGMSVYDSLDKALKVRGLNQDCCVVYRLIKGRKTVHAWDTAIAPLDGEELIVE | -0.625 ± 0.21 |
| VKVYLPNKQRTVVTVRDGMSVYDSLDKALKVRGLNQDCCVVYRLIKGRKTVWAWDTAIAPLDGEELIVE | -0.31 ± 0.052 |
| VKVYLPNKQRTVVTVRDGMSVYDSLDKALKVRGLNQDCCVVYRLIKGRKTVIAWDTAIAPLDGEELIVE | 0.141 ± 0.17 |
| VKVYLPNKQRTVVTVRDGMSVYDSLDKALKVRGLNQDCCVVYRLIKGRKTVPAWDTAIAPLDGEELIVE | -1.04 ± 0.2 |
| VKVYLPNKQRTVVTVRDGMSVYDSLDKALKVRGLNQDCCVVYRLIKGRKTVFAWDTAIAPLDGEELIVE | -0.708 ± 0.29 |
| VKVYLPNKQRTVVTVRDGMSVYDSLDKALKVRGLNQDCCVVYRLIKGRKTVYAWDTAIAPLDGEELIVE | -0.188 ± 0.11 |
| VKVYLPNKQRTVVTVRDGMSVYDSLDKALKVRGLNQDCCVVYRLIKGRKTVDAWDTAIAPLDGEELIVE | -0.978 ± 0.26 |
| VKVYLPNKQRTVVTVRDGMSVYDSLDKALKVRGLNQDCCVVYRLIKGRKTVVAWDTAIAPLDGEELIVE | 0.117 ± 0.059 |
| VKVYLPNKQRTVVTVRDGMSVYDSLDKALKVRGLNQDCCVVYRLIKGRKTVQAWDTAIAPLDGEELIVE | -0.317 ± 0.089 |
| VKVYLPNKQRTVVTVRDGMSVYDSLDKALKVRGLNQDCCVVYRLIKGRVTVTAWDTAIAPLDGEELIVE | -0.934 ± 0.17 |
| VKVYLPNKQRTVVTVRDGMSVYDSLDKALKVRGLNQDCCVVYRLIKGRYTVTAWDTAIAPLDGEELIVE | -0.668 ± 0.19 |
| VKVYLPNKQRTVVTVRDGMSVYDSLDKALKVRGLNQDCCVVYRLIKGRKTVTAWMTAIAPLDGEELIVE | -0.557 ± 0.064 |
| VKVYLPNKQRTVVTVRDGMSVYDSLDKALKVRGLNQDCCVVYRLIKGRKTVTAWKTAIAPLDGEELIVE | -0.347 ± 0.051 |
| VKVYLPNKQRTVVTVRDGMSVYDSLDKALKVRGLNQDCCVVYRLIKGRKTVTAWLTAIAPLDGEELIVE | -0.908 ± 0.076 |
| VKVYLPNKQRTVVTVRDGMSVYDSLDKALKVRGLNQDCCVVYRLIKGRKTVTAWHTAIAPLDGEELIVE | -0.234 ± 0.087 |
| VKVYLPNKQRTVVTVRDGMSVYDSLDKALKVRGLNQDCCVVYRLIKGRKTVTAWFTAIAPLDGEELIVE | -0.872 ± 0.13 |
| VKVYLPNKQRTVVTVRDGMSVYDSLDKALKVRGLNQDCCVVYRLIKGRKTVTAWETAIAPLDGEELIVE | -0.089 ± 0.036 |
| VKVYLPNKQRTVVTVRDGMSVYDSLDKALKVRGLNQDCCVVYRLIKGRKTVTAWATAIAPLDGEELIVE | -0.346 ± 0.041 |
| VKVYLPNKQRTVVTVRDGMSVYDSLDKALKVRGLNQDCCVVYRLIKGRKTVTAWGTAIAPLDGEELIVE | -0.204 ± 0.029 |
| VKVYLPNKQRTVVTVRDGMSVYDSLDKALKVRGLNQDCCVVYRLIKGRKTVTAWCTAIAPLDGEELIVE | -0.52 ± 0.087 |
| VKVYLPNKQRTVVTVRDGMSVYDSLDKALKVRGLNQDCCVVYRLIKGRKTVTAWITAIAPLDGEELIVE | -0.452 ± 0.14 |
